The record followed here is US6858578.

For this experiment, the target named is LDLR/TF chimeric protein with amino acids 1-374 of mature human LDLR fused to amino acids 20-698 of human transferrin (encoded by pEFBOS/LDLrTF1.S) (human). Kind of experiment: microplate assay: chimeric protein (13.3 nM) held by coated HTF-14, LDL 0.5-50 µg/ml, detected with sheep anti-human LDL; the signal at 50 µg/ml is taken as the maximum.

Values joined by “and” are separate entries in the source; they are usually repeats but may differ in a detail not shown here. Equal values may be shown once.

Sequence of LDLR/TF chimeric protein with amino acids 1-374 of mature human LDLR fused to amino acids 20-698 of human transferrin (encoded by pEFBOS/LDLrTF1.S) (human) (chain, as listed by the source mutant): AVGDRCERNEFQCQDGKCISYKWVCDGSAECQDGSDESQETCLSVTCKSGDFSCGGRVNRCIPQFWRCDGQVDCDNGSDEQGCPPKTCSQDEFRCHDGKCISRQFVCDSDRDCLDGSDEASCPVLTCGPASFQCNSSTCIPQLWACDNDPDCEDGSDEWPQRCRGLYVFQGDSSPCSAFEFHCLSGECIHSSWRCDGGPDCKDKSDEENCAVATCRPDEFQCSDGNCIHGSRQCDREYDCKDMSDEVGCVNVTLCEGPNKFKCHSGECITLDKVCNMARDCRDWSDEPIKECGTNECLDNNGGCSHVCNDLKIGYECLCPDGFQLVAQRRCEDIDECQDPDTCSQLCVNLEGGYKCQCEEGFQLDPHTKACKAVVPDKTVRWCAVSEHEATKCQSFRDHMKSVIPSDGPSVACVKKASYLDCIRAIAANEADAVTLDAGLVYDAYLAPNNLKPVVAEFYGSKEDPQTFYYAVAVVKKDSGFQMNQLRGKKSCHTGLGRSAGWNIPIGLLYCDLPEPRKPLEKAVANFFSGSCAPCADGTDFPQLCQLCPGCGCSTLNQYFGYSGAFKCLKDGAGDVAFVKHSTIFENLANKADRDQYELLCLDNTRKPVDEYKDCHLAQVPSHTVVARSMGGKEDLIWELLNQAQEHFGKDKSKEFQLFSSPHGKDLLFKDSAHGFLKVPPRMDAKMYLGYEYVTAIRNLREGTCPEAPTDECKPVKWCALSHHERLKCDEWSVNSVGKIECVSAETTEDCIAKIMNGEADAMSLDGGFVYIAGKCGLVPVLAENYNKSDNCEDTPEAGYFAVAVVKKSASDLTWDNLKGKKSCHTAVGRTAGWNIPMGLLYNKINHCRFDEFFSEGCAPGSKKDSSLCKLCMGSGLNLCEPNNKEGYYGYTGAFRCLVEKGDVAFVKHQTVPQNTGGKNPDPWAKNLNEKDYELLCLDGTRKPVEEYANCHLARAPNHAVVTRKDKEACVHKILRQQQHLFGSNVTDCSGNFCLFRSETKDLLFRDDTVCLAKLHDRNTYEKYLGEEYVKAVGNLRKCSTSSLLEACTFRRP

Take “human LDL (low density lipoprotein particle carrying one molecule of apolipoprotein B-100), P04114 28-4563”: the EC50 – broadly, the midpoint of the concentration-response curve – is 1.6 µg/mL and 3.1 nM.
